The assay concerns the target recombinant full-length thrombospondin-1 (human) (UniProt P07996). Kind of assay: SPR. For orientation: SPR reads the build-up and loss of mass on a sensor chip optically.

By Kd is commonly meant the constant that tells how readily two partners part at equilibrium.

Chain of recombinant full-length thrombospondin-1 (human) (P07996 19-1170): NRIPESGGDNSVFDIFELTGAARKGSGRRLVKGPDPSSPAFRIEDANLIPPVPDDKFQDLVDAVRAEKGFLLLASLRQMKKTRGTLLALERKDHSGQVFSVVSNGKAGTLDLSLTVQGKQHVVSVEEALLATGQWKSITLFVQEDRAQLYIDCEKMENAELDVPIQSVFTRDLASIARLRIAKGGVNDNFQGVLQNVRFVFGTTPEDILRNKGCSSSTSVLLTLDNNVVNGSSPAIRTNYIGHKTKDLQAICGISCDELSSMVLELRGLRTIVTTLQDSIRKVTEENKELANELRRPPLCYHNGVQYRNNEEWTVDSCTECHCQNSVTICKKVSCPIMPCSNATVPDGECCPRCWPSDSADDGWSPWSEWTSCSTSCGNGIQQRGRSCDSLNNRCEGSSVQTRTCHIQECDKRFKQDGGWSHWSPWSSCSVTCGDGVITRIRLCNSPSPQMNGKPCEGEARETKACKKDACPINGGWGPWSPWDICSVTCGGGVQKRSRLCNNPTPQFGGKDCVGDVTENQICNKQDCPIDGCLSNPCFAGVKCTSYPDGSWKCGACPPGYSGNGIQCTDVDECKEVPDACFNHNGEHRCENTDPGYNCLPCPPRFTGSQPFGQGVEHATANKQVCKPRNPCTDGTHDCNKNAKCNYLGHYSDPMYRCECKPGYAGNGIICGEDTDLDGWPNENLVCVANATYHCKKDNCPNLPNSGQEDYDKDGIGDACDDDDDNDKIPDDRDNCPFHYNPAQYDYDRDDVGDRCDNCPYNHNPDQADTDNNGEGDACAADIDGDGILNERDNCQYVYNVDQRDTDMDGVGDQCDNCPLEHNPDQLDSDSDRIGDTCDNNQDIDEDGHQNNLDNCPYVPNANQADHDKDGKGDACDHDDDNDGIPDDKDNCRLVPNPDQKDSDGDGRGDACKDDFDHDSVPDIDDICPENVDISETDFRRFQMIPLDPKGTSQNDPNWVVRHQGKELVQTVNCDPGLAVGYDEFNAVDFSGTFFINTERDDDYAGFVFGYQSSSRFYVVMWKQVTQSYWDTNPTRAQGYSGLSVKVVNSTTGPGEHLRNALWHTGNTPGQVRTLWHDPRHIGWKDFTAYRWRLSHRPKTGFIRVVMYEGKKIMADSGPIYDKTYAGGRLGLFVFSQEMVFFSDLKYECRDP

As to complement C3 (natural protein), the Kd came out at 127 nM.
Regarding complement C5 (natural protein), the Kd turned out to be 47 nM.
